We go through six molecules from patent USRE49495E1, “Binding polypeptides having a mutated scaffold” (Affibody AB, priority 2013, dated 2023).

A short description of series [1]: Circular dichroism, variable temperature measurement (Tm) and spectra before and after heating. In kind it is physicochemical. The settings on record: His6-tagged, 0.5 mg/ml in PBS, CD at 221 nm, 20 to 90° C. How it is done:
Circular dichroism (CD) analysis was carried out to determine the melting temperatures (Tm) and assess potential changes in the secondary structure of the inventive polypeptides as a result of the amino acid substitutions.
Purified His6-tagged Z variants were diluted to 0.5 mg/ml in PBS. For each diluted Z variant, a CD spectrum at 250-195 nm was recorded at 20° C. A variable temperature measurement (VTM) was performed to determine the Tm. In the VTM, the absorbance was measured at 221 nm while the temperature was raised from 20 to 90° C., with a temperature slope of 5° C./min. After the VTM, a second CD spectrum at 250-195 nm was recorded at 20° C. The CD measurements were performed on a Jasco J-810 spectropolarimeter (Jasco Scandinavia AB) using a cell with an optical path-length of 1 mm.
For orientation: CD spectra are sensitive to the conformation of chiral molecules.

The target in the next series is T1, human HER2-Fc (Homo sapiens, UniProt P04626).
T1 construct: Fc; purchased R&D Systems 1129-ER-050
Put plainly: Biacore 2000 comparative kinetic analysis, HER2. In kind it is binding. The settings on record: for KDInv/KDOrig: original set to 1.0; for KD(2w)/KD(0): KD after stability test relative to KD before. On the procedure:
(§1) A set of polypeptides showing improved stability properties in Example 12 were further assessed in terms of preserved binding capacities to their targets after introduction of alterations in the scaffold, as well as after having been subjected to the stability test, i.e. incubated at 37° C. for 2 weeks. Comparative kinetic constants (kon and koff) and affinities (KD) were determined using a Biacore 2000 instrument. The target proteins human HER2-Fc (R&D Systems, cat. no. 1129-ER-050), human PDGF-Rβ (R&D Systems, cat. no. 385-PR-100/CF), human FcRn (Biorbyt, cat. no. orb 84388) and human CAIX (R&D Systems, cat. no. 2188-CA), respectively, were immobilized on the carboxylated dextran layer surface of CM5 chips (GE Healthcare). The immobilization was performed using amine coupling chemistry according to the manufacturer's protocol and using HBS-EP as running buffer. One flow cell surface on the chip was activated and deactivated for use as blank during analyte injections. The immobilization level of target protein on the respective surface was approximately 850 RU for HER2, 2200 RU for PDGF-Rβ, 750 for FcRn and 580 RU for CAIX.
(§2) HBS-EP (HER2, PDGF-Rβ, CAIX) or a pH 6.0 Na2HPO4/citric acid buffer (126 mM Na2HPO4, 37 mM citric acid) (FcRn) was used as running buffer and the flow rate was 30 μl/min in the binding experiments performed at 25° C. as further described below.
The Z variants Z02891 (SEQ ID NO:27), Z17341 (SEQ ID NO:28), and Z17342 (SEQ ID NO:29) targeting HER2 were diluted in running buffer to final concentrations of 3.33, 10, 30 and 90 nM and injected for 5 minutes, followed by 30 minutes of dissociation in running buffer. Regeneration by four pulses alternating between 10 mM HCl and 10 mM NaOH followed by 5 min equilibration in running buffer was applied after each analyte injection.
(§3) Kinetic constants were calculated from the sensorgrams using the Langmuir 1:1 model (HER2, FcRn, CAIX) or the 1:1 binding with mass transfer model (PDGF-Rβ) of the BiaEvaluation software 4.1 (GE Healthcare). Curves of the blank surface were subtracted from the curves of the ligand surfaces and the data from the buffer cycles were subtracted from the data of the test-sample cycles to correct for any drift in signal.
For orientation: In SPR one partner is held on a chip, and binding of the other changes the refractive index at the surface.

A further series concerns the target T2, human PDGF-Rβ (Homo sapiens, UniProt P09619).
T2 construct: purchased R&D Systems 385-PR-100/CF
Put plainly: Biacore 2000 comparative kinetic analysis, PDGF-Rβ. In kind it is binding. The settings on record: for KDInv/KDOrig: original set to 1.0. On the procedure: as §1, §2
The Z variants Z15805 (SEQ ID NO:30), Z17343 (SEQ ID NO:31), and Z17344 (SEQ ID NO:32) targeting PDGF-R13 were diluted in running buffer to final concentrations of 6.67, 20, 60 and 180 nM and injected for 5 minutes, followed by 20 minutes of dissociation in running buffer. Regeneration by three pulses of 10 mM NaOH followed by 5 min equilibration in running buffer was applied after each analyte injection.
as §3

Another series addresses T3, human FcRn (Homo sapiens, UniProt P55899).
T3 construct: purchased Biorbyt orb 84388
Put plainly: Biacore 2000 comparative kinetic analysis, FcRn. It counts as binding. The following applies: for KDInv/KDOrig: original set to 1.0. How it is done:
Comparative kinetic constants (kon and koff) and affinities (KD) were determined using a Biacore 2000 instrument. The target proteins human HER2-Fc (R&D Systems, cat. no. 1129-ER-050), human PDGF-Rβ (R&D Systems, cat. no. 385-PR-100/CF), human FcRn (Biorbyt, cat. no. orb 84388) and human CAIX (R&D Systems, cat. no. 2188-CA), respectively, were immobilized on the carboxylated dextran layer surface of CM5 chips (GE Healthcare). The immobilization was performed using amine coupling chemistry according to the manufacturer's protocol and using HBS-EP as running buffer. One flow cell surface on the chip was activated and deactivated for use as blank during analyte injections.
as §2
Regeneration by three pulses of HBS-EP followed by 10 min equilibration in running buffer was applied after each analyte injection.
as §3

Series [2] can be described thus: Three month stability test at 37° C., RPC main peak.
Protocol: (Example 2) were subjected to a longer 3 month stability test at 37° C. The setup of the stability test and the analysis by RPC was as described in Example 2. The evaluation of the stability was made by measuring the main peak of the chromatogram and calculating the corresponding percentage of the total protein content.
The nature of series [3]: Accelerated stability study of C5 binding polypeptides, 2 weeks at 37° C., SDS-PAGE and Reversed Phase HPLC (RPC). In kind it is physicochemical.
Protocol: The stability was measured by the appearance of new variants after the stability testing by SDS-PAGE and Reversed Phase HPLC (RPC). In both analyses, the initial sample and the one subjected to the stability study were run in parallel. For the SDS-PAGE, 7.5 μg protein was loaded into each well.
The purified proteins were formulated in 25 mM NaP/125 mM NaCl pH 7.0 and subjected to an accelerated stability study for 2 weeks at 37° C. The stability was measured by the appearance of new variants after the stability testing by SDS-PAGE and Reversed Phase HPLC (RPC). In both analyses, the initial sample and the one subjected to the stability study were run in parallel. For the SDS-PAGE, 7.5 μg protein was loaded into each well.
Series [4] deals with human FcRn (Biorbyt, cat. no. orb 84388) (human) (UniProt P55899). Put plainly: SPR Biacore 2000, FcRn on CM5 chip, pH 6.0, 1:1 Langmuir; KD after 2 weeks at 37 C against KD before.
For series [5] the target is unchanged. Put plainly: SPR Biacore 2000, FcRn on CM5 chip, pH 6.0, 1:1 Langmuir; sample (2w) after 2 weeks at 37 C.
Series [6] has the same target. Put plainly: SPR Biacore 2000, FcRn on CM5 chip, pH 6.0, 1:1 Langmuir; sample (2w) after 2 weeks at 37 C; reference Z10103 (2w).
Series [7] shares this target. Put plainly: SPR Biacore 2000, FcRn on CM5 chip, pH 6.0, 1:1 Langmuir; sample (0) before stability test; reference Z10103 (0).
Series [8] shares this target. Put plainly: SPR Biacore 2000, FcRn on CM5 chip, pH 6.0, 1:1 Langmuir; sample (0) before stability test.
Where [9] appears, read: (0) prior to stability test, comparative, not absolute.
Where [10] appears, read: (2w) after 2 weeks at 37° C., comparative, not absolute.
Setting [11] is: compared with original Z variant.
The mark [12] stands for this setting: KD after stability test relative to KD before.
[13] abbreviates: (0) prior to stability test, pH 6.0.
[14] abbreviates: (2w) after 2 weeks at 37° C., pH 6.0.

T3 sequence (P55899 24-297 limits assumed): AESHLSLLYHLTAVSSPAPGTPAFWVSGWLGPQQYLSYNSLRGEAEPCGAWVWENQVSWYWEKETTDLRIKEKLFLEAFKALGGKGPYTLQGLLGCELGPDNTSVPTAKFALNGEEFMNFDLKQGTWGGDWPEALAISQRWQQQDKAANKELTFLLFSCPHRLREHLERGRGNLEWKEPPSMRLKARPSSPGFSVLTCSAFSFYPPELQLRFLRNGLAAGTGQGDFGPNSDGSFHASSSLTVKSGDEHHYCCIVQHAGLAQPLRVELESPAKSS
T3 sequence (P61769 21-119 partner): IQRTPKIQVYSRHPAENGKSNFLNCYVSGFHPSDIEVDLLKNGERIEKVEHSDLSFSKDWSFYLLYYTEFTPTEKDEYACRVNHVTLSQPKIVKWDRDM
T2 sequence (P09619 with tags, fused parts or gaps limits assumed): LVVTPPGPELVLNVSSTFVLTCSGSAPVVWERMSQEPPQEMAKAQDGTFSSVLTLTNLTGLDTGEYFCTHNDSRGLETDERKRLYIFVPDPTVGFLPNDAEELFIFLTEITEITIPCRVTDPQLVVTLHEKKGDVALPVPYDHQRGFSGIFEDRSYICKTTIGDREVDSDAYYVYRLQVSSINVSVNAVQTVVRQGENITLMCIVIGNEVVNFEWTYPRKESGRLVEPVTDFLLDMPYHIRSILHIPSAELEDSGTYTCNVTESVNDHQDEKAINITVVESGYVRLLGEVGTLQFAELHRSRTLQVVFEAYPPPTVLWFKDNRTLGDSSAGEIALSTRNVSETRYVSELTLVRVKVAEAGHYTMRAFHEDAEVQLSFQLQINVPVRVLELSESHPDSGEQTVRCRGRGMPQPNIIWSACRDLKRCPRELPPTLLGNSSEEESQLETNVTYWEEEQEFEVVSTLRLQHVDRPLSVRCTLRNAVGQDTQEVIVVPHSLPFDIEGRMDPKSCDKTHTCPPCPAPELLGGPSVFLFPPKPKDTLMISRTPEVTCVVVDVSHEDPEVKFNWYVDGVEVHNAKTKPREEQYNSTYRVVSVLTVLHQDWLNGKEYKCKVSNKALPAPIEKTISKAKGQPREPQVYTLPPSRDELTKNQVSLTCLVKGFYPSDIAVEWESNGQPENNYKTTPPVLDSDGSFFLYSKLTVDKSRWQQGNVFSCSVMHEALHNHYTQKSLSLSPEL

In the case of “Z02891: original Z variant polypeptide targeting HER2, His6-tagged [reference compound]”, the “Tm (° C.)” value in [1] came to 70 °C. In the series with human HER2-Fc ((0) prior to stability test), the “ka” value was 1.33e+06 M/s, the “kd” value stood at 7.1e-05 s⁻¹ and the KDInv/KDOrig stood at 1.0. Binding with human HER2-Fc (setting [9]) was characterised by a dissociation constant (Kd) of 0.054 nM. In the series with human HER2-Fc ((2w) after 2 weeks at 37° C.), the “ka” value came out at 1.15e+06 M/s, the “kd” value came to 7.19e-05 s⁻¹ and the KDInv/KDOrig was 1.0. Further, the dissociation constant (Kd) in the series with human HER2-Fc (setting [10]) was 0.062 nM. Further, in the series with human HER2-Fc, the “KD(2w)/KD(0)” value was determined as 1.17.
For the molecule “Z17342: inventive HER2 binding Z variant; D36R, D37Q, S39E, N52S, D53E (AEAKYAKEMRNAYWEIALLPNLTNQQKRAFIRKLYRQPEQSSELLSEAKKLSESQAPK; Engineered HER2 binding Z variant)”, the “Tm (° C.)” value in series [1] is 62 °C. Also, the figures for the “ka” value with human HER2-Fc ((0) prior to stability test) and with human HER2-Fc ((2w) after 2 weeks at 37° C.) were 894000 M/s and 649000 M/s, respectively. Besides, the “kd” value with human HER2-Fc ((0) prior to stability test) is 0.00157 s⁻¹; in the series with human HER2-Fc ((2w) after 2 weeks at 37° C.) it was 0.0015 s⁻¹. The dissociation constant (Kd) in the series with human HER2-Fc (setting [9]) was 1.8 nM; in the series with human HER2-Fc (setting [10]) it was 2.3 nM; with human HER2-Fc (range of magnitude), ~1 nM. Also, the KDInv/KDOrig is on record as 33 in the series with human HER2-Fc ((0) prior to stability test) and 37 in the series with human HER2-Fc ((2w) after 2 weeks at 37° C.). For the same molecule, the “KD(2w)/KD(0)” value with human HER2-Fc was 1.31. For the same molecule, the “effect of scaffold substitutions on the affinity” value (“effect of scaffold substitutions” for short) in the series with human HER2-Fc (setting [11]) is “more negative effect on the affinity”.
On to “Z17344: inventive PDGF-Rβ binding Z variant; D36R, D37Q, S39E, N52S, D53E (AEAKYAKELIEAAAEIDALPNLTRRQWNAFIKKLVRQPEQSSELLSEAKKLSESQAPK; Engineered PDGFRbeta binding Z variant)”, for which the “Tm (° C.)” value in [1] was 42 °C. In addition, the entries for the “ka” value with human PDGF-Rβ ((0) prior to stability test) and with human PDGF-Rβ ((2w) after 2 weeks at 37° C.) were 5.15e+07 M/s and 5.62e+07 M/s, respectively. For the same molecule, the “kd” value came to 0.0616 s⁻¹ with human PDGF-Rβ ((0) prior to stability test) and 0.0623 s⁻¹ with human PDGF-Rβ ((2w) after 2 weeks at 37° C.). Also, the dissociation constant (Kd) was 1.2 nM with human PDGF-Rβ (setting [9]), 1.1 nM with human PDGF-Rβ (setting [10]) and ~1 nM in the series with human PDGF-Rβ (range of magnitude). The KDInv/KDOrig with human PDGF-Rβ ((0) prior to stability test) turned out to be 6.19; with human PDGF-Rβ ((2w) after 2 weeks at 37° C.) it was 3.88. Further, the “KD(2w)/KD(0)” value with human PDGF-Rβ (setting [12]) was 0.93. For the same molecule, the “effect of scaffold substitutions” value in the series with human PDGF-Rβ (setting [11]) is “more negative effect on the affinity”.
For “Z17348: inventive FcRn binding Z variant; D36R, D37Q, S39E, N52S, D53E (AEAKYAKEQDAAAHEIRWLPNLTFDQRVAFIHKLARQPEQSSELLSEAKKLSESQAPK; Engineered FcRn binding Z variant)”, the “Tm (° C.)” value in series [1] came to 44 °C. The KDInv/KDOrig in the series with human FcRn ((0) prior to stability test) is on record as 1.93; with human FcRn ((2w) after 2 weeks at 37° C.), 3.46. Also, the “ka” value in the series with human FcRn (setting [13]) turned out to be 1.82e+06 M/s; with human FcRn (setting [14]), 1.28e+06 M/s. Further, the “kd” value with human FcRn (setting [13]) came out at 0.01 s⁻¹; with human FcRn (setting [14]) it was 0.00809 s⁻¹. The equilibrium dissociation constant (Kd) with human FcRn ((0) prior to stability test, pH 6.0, comparative, not absolute) was 5.5 nM; in the series with human FcRn ((2w) after 2 weeks at 37° C., pH 6.0, comparative, not absolute), 6.3 nM; with human FcRn (range of magnitude), ~1 nM. The “KD(2w)/KD(0)” value with human FcRn (setting [12]) was 1.14. For the same molecule, in the series with human FcRn (setting [11]), the “effect of scaffold substitutions” value was “more negative effect on the affinity”.

B1: PSI0383: C5 binding polypeptide fused to albumin binding domain; ND to SE in positions 52-53 (protein)
chain: AEAKYAKEVLEAWDEIDRLPNLTIEQWLAFINKLDRQPEQSSELLSEAKKLSESQAPKVEGSLAEAKEAANAELDSYGVSDFYKRLIDKAKTVEGVEALKDAILAALP
modifications: Engineered C5 binding Z variant
Take B1: the “stability after 3 months at 37° C. compared with PSI0242 after 2 weeks” value in series [2] is “higher proportion of protein in the original form”. In addition, in [2] (RPC), the “3 months, 37° C. Main peak (% of total protein)” value came to 59%. In series [3] (RPC, after 2 weeks at 37° C., 25 mM NaP/125 mM NaCl pH 7.0), the “Main peak (% of total protein)” value turned out to be 91%. The “2 weeks, 37° C. Main peak (% of total protein)” value in [3] (RPC, data from Example 2 repeated in Table 8) is reported as 91%. Moreover, the “stability when compared with PSI0242” value in series [3] (conclusion from Table 1, 2 weeks at 37° C.) was “increased stability”.

B2: Z17348 (designed binder)
chain: MGSSHHHHHHLQAEAKYAKEQDAAAHEIRWLPNLTFDQRVAFIHKLARQPEQSSELLSEAKKLSESQAPK
For the molecule B2, in series [4], the KD(2w)/KD(0) turned out to be 1.14. In addition, in [5], the equilibrium dissociation constant (Kd) came to 6.3 nM, the koff was 0.00809 s⁻¹ and the kon was 1.28e+06 M⁻¹ s⁻¹. Besides, in series [6], the KDInv/KDOrig turned out to be 3.46. The same molecule displayed a KDInv/KDOrig in series [7] of 1.93. Further, in [8], the dissociation constant Kd came out at 5.5 nM, the koff came out at 0.01 s⁻¹ and the kon worked out at 1.82e+06 M⁻¹ s⁻¹.

In general, Kd refers to the concentration at which binding is half-saturated. In general, koff refers to a measure of how fast the partners let go of each other. High values mean fast dissociation, low ones slow dissociation. The term kon denotes a measure of how fast the partners come together. The low end stands for slow association, the high end for fast association.
